In PMC9376091 (Scientific Reports, 2022):
Where “and” joins values, the source holds several entries; their conditions need not be identical. Equal entries are not always repeated.

Target: the molecule itself
Assay: AUC

B1: homoserine acetyl transferase (HSAT, MetX, Rv3341) from M. tuberculosis, recombinant (His)6-MetX (enzyme)
chain: MTISDVPTQTLPAEGEIGLIDVGSLQLESGAVIDDVCIAVQRWGKLSPARDNVVVVLHALTGDSHITGPAGPGHPTPGWWDGVAGPGAPIDTTRWCAVATNVLGGCRGSTGPSSLARDGKPWGSRFPLISIRDQVQADVAALAALGITEVAAVVGGSMGGARALEWVVGYPDRVRAGLLLAVGARATADQIGTQTTQIAAIKADPDWQSGDYHETGRAPDAGLRLARRFAHLTYRGEIELDTRFANHNQGNEDPTAGGRYAVQSYLEHQGDKLLSRFDAGSYVILTEALNSHDVGRGRGGVSAALRACPVPVVVGGITSDRLYPLRLQQELADLLPGCAGLRVVESVYGHDGFLVETEAVGELIRQTLGLADREGACRR
With B1 the “stoichiometry N” value was 2 and 4.
